Data reported in patent US20120225828A1.
Bridge positions count the residues as written; N and C are the ends. Square brackets hold non-standard residues; d marks the D form. Nle = CCCC[C@H](N)C(=O)O; Dab = NCC[C@H](N)C(=O)O

B1: Ac-Nle-cyclo(Glu-His-D-Phe-Gly-Dab)-Trp-NH2 (SEQ ID NO: 50) (peptide)
peptide: Ac-[Nle]EH[dF]G[Dab]W-NH2
modifications: lactam 2-6
SMILES: CCCC[C@H](NC(C)=O)C(=O)N[C@H]1CCC(=O)NCC[C@@H](C(=O)N[C@@H](Cc2c[nH]c3ccccc23)C(N)=O)NC(=O)CNC(=O)[C@@H](Cc2ccccc2)NC(=O)[C@H](Cc2c[nH]cn2)NC1=O
B2: Ac-Nle-cyclo(Glu-His-D-Phe-Ala-Dab)-Trp-NH2 (SEQ ID NO: 51) (peptide)
peptide: Ac-[Nle]EH[dF]A[Dab]W-NH2
modifications: lactam 2-6
SMILES: CCCC[C@H](NC(C)=O)C(=O)N[C@H]1CCC(=O)NCC[C@@H](C(=O)N[C@@H](Cc2c[nH]c3ccccc23)C(N)=O)NC(=O)[C@H](C)NC(=O)[C@@H](Cc2ccccc2)NC(=O)[C@H](Cc2c[nH]cn2)NC1=O
B3: Ac-Nle-cyclo(Glu-His-D-Phe-Arg-Dab)-Lys-NH2 (SEQ ID NO: 55) (peptide)
peptide: Ac-[Nle]EH[dF]R[Dab]K-NH2
modifications: lactam 2-6
SMILES: CCCC[C@H](NC(C)=O)C(=O)N[C@H]1CCC(=O)NCC[C@@H](C(=O)N[C@@H](CCCCN)C(N)=O)NC(=O)[C@H](CCCNC(=N)N)NC(=O)[C@@H](Cc2ccccc2)NC(=O)[C@H](Cc2c[nH]cn2)NC1=O
B4: Ac-Nle-cyclo(Glu-His-D-Phe-Ala-Dab)-Trp-NH2 (peptide)
peptide: Ac-[Nle]EH[dF]A[Dab]W-NH2
modifications: lactam 2-6
SMILES: CCCC[C@H](NC(C)=O)C(=O)N[C@H]1CCC(=O)NCC[C@@H](C(=O)N[C@@H](Cc2c[nH]c3ccccc23)C(N)=O)NC(=O)[C@H](C)NC(=O)[C@@H](Cc2ccccc2)NC(=O)[C@H](Cc2c[nH]cn2)NC1=O

Tests used:
[1] = molecular target: recombinant human melanocortin-4 receptor hMCR-4 (human) (UniProt P32245); assay: competition with [I125]-NDP-α-MSH; HEK-293 hMCR-4 membrane homogenates
Sequence of recombinant human melanocortin-4 receptor hMCR-4 (human) (P32245 whole entry): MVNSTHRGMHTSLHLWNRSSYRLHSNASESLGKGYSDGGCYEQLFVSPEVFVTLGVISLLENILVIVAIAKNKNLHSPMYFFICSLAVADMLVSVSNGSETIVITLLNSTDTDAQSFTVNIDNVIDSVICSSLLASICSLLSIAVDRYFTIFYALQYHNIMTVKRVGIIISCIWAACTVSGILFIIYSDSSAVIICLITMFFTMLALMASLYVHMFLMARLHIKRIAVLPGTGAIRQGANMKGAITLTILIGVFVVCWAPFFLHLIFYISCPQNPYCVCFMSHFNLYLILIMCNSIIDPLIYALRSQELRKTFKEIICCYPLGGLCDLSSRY

[2] = molecular target: recombinant human melanocortin-1 receptor hMCR-1a (human) (UniProt Q01726); assay: competition with [I125]-NDP-α-MSH; HEK-293 hMCR-1a membrane homogenates
Sequence of recombinant human melanocortin-1 receptor hMCR-1a (human) (Q01726 whole entry): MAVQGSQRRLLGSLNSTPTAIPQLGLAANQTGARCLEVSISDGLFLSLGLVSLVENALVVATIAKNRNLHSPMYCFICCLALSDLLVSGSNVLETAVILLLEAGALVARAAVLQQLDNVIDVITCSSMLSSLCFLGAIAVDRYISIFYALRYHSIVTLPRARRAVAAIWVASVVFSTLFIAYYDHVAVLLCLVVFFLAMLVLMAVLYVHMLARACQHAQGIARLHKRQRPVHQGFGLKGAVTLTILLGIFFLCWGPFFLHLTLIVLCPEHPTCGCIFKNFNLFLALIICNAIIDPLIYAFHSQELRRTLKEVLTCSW

Row | Binder | Ki [1] [nM] | Ki [2] [nM]
1 | B1 | 10000 | 9
2 | B2 | 10000 | 0.08
3 | B3 | 7380 | 2
4 | B4 |  | 0.08
